Laboratory results as given in article PMC6997759 (2019).

Key:
[1] = target: AE.A244gp120Δ11 (N-terminal 11 aa deleted) (HIV-1 (clade AE, A244)); assay: SPR; apparent affinity
B.MNgp120Δ11 = assay: SPR; apparent affinity

B1: DH677.3 MAb (antibody, V domains shown)
VH: QVQLVQSGAEVQKPGASVKVSCKASGYTFASYDINWVRQATGQGLEWMGWMNPKTGNTGYAQKFQGRVTLTRNTSISTAYMELTSLRSEDTAVYYCATYRIIAAVGYRYFQYWGQGTLVTVSS
VL: DIQLTQSPSSLSASVGDSVTITCRASQGFGNYLAWYQQRPGKVPEVLIYAATTLQSGVPSRFSGSGSGTDFTLTISSLQPEDVATYYCQKYNSAPFTFGQGTRLEIK
[1]
  Kd: 0.6 nM
B.MNgp120Δ11
  Kd: 7.02 nM
